Data as given in paper PMC10643145, “Structure and activation of the RING E3 ubiquitin ligase TRIM72 on the membrane” (Nature Structural & Molecular Biology, 2023).
Residue numbers refer to the chain shown, from its start.

What was measured:
[1] = target: the molecule itself; test: cross-linking; time-dependent cross-linking of TRIM72 WT purified from mammalian cells (copurified with endogenous microvesicles)
[2] = target: the molecule itself; test: SEC-MALS; Superdex 200 Increase 10/300 GL; 50 mM Tris-HCl pH 8.0, 300 mM NaCl, 2 mM TCEP; TRIM72 WT at 11.2, 5.6 and 2.8 mg/ml; dimer in solution
[3] = target: the molecule itself; test: cryo-EM structure; cryo-ET and subtomogram averaging of proteoliposomes (80 mol% DOPS, 20 mol% cholesterol); 50 mM Tris-HCl pH 8.0, 150 mM NaCl, 1 mM TCEP; higher-order assembly of dimers on the lipid bilayer

B1: human TRIM72 wild type, 2× Strep-tagged (natural protein, UniProt Q6ZMU5 1-477, looked up)
chain: MSAAPGLLHQELSCPLCLQLFDAPVTAECGHSFCRACLGRVAGEPAADGTVLCPCCQAPTRPQALSTNLQLARLVEGLAQVPQGHCEEHLDPLSIYCEQDRALVCGVCASLGSHRGHRLLPAAEAHARLKTQLPQQKLQLQEACMRKEKSVAVLEHQLVEVEETVRQFRGAVGEQLGKMRVFLAALEGSLDREAERVRGEAGVALRRELGSLNSYLEQLRQMEKVLEEVADKPQTEFLMKYCLVTSRLQKILAESPPPARLDIQLPIISDDFKFQVWRKMFRALMPALEELTFDPSSAHPSLVVSSSGRRVECSEQKAPPAGEDPRQFDKAVAVVAHQQLSEGEHYWEVDVGDKPRWALGVIAAEAPRRGRLHAVPSQGLWLLGLREGKILEAHVEAKEPRALRSPERRPTRIGLYLSFGDGVLSFYDASDADALVPLFAFHERLPRPVYPFFDVCWHDKGKNAQPLLLVGPEGAEA
notes: TRIM72 (MG53), human, wild type, full length; Copurified with endogenous microvesicles of about 100 nm; also called TRIM72 WT purified from mammalian cells; mammalian-expressed human TRIM72; source: HEK293T, transfected (polyethyleneimine), purified (StrepTrap HP, SEC on Superose 6 Increase)
binding result [1]: binds

B2: mouse TRIM72 wild type (tripartite motif-containing protein 72) (natural protein, UniProt Q1XH17 1-477, looked up)
chain: MSAAPGLLRQELSCPLCLQLFDAPVTAECGHSFCRACLIRVAGEPAADGTVACPCCQAPTRPQALSTNLQLSRLVEGLAQVPQGHCEEHLDPLSIYCEQDRTLVCGVCASLGSHRGHRLLPAAEAQARLKTQLPQQKMQLQEACMRKEKTVAVLEHQLVEVEETVRQFRGAVGEQLGKMRMFLAALESSLDREAERVRGDAGVALRRELSSLNSYLEQLRQMEKVLEEVADKPQTEFLMKFCLVTSRLQKILSESPPPARLDIQLPVISDDFKFQVWKKMFRALMPALEELTFDPSSAHPSLVVSSSGRRVECSDQKAPPAGEDTRQFDKAVAVVAQQLLSQGEHYWEVEVGDKPRWALGVMAADASRRGRLHAVPSQGLWLLGLRDGKILEAHVEAKEPRALRTPERPPARIGLYLSFADGVLAFYDASNPDVLTPIFSFHERLPGPVYPIFDVCWHDKGKNAQPLLLVGPEQEQA
notes: TRIM72 (MG53), Mus musculus, wild type, full length; Tight dimer in solution by SEC-MALS; higher-order assembly only on PS liposomes; also called TRIM72 WT; MG53; source: E. coli BL21(DE3), purified (AC, IEX, SEC); not shown: His6, N-terminal, cleaved; MBP, N-terminal, cleaved
stoichiometry N [2]: 2

B3: mouse TRIM72^M138R (natural protein, UniProt Q1XH17 1-477, looked up)
chain: B2 chain with M138R
notes: TRIM72, Mus musculus, mutation on the outer side of the H1 helix of the coiled-coil domain; source: E. coli BL21(DE3), purified (AC, IEX, SEC); not shown: His6, N-terminal, cleaved; MBP, N-terminal, cleaved
binding result [3]: binds
